Assay [1] deals with T1, cynomolgus monkey CD3 expressed on primary T cells (cynomolgus monkey, UniProt Q95LI5 22-198; Q95LI8 22-171; Q95LI7 23-181).
T1 construct: whole, on cells; CD3 complex on purified cynomolgus monkey T cells; also called cyno CD3
Nature of the assay: flow cytometry, 25 nM, cyno primary T cells. On the procedure:
(§1) Purified antibodies were confirmed to bind CD3 expressed on cells using the CytoFLEX S or LX flow cytometers (Beckman Coulter). Antibodies were diluted to 25 nM in FACS buffer (PBS+2% FBS) and were incubated with CD3-expressing cells for 30 minutes at 4° C. […] The median fluorescence intensity of the binding signal for each antibody was normalized to the isotype control to obtain a fold over isotype value. An antibody with a fold over isotype (FOI) of ≥10 was considered to be positive for binding.

Assay [2] concerns the target T2, human CD3 expressed on cells (human, UniProt P07766 23-207; P04234 22-171; P09693 23-182).
T2 construct: whole, on cells; CD3 complex on Jurkat cells and on human primary T cells
Kind of assay: flow cytometry, 25 nM. On the procedure:
as §1

T1 sequence (Q95LI5 22-198, chain 1 of 3): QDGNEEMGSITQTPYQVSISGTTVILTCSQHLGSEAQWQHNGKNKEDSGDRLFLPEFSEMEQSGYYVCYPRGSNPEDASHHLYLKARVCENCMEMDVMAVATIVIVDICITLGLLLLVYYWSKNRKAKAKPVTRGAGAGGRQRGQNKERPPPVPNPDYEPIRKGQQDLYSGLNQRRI
T1 sequence (Q95LI8 22-171, chain 2 of 3): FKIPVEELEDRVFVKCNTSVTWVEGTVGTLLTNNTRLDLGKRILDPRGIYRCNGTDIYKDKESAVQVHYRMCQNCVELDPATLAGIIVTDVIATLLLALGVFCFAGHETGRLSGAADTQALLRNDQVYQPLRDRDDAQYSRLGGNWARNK
T1 sequence (Q95LI7 23-181, chain 3 of 3): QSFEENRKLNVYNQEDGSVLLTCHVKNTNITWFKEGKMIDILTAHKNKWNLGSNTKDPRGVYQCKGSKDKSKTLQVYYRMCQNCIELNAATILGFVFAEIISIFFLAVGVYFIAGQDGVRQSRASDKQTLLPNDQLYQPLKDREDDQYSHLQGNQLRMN
T2 sequence (P07766 23-207, chain 1 of 3): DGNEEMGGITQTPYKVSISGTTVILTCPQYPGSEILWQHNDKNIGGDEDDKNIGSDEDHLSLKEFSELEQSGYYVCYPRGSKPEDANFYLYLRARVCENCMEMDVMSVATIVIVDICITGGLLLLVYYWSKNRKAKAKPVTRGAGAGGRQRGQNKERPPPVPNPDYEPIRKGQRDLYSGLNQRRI
T2 sequence (P04234 22-171, chain 2 of 3): as the sequence (Q95LI8 22-171, chain 2 of 3) above, with V5I, K15N, V20I, T32S, N33D, N34I, A64T, N74S, L83V, R141H counted along it
T2 sequence (P09693 23-182, chain 3 of 3): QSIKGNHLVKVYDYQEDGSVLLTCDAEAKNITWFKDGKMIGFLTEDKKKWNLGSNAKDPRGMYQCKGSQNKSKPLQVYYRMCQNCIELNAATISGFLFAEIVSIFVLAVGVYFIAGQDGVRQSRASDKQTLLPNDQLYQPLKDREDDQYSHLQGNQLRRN

B1: mAb 85 (antibody, V domains shown)
VH: QVQLVQSGAEVKKPGASVKVSCKASGYTVTGYYMHWVRQAPGQGLEWMGWINPNSGGTNFAQNFQGRVTMTRDTSISTFYMDLNRLRSDDTAVYYCARGGAPVSYWFFDLWGRGTLVTVSS
VL: DIQMTQSPSSLSASVGDRVTITCRASQSISRYLNWYQQKPGKAPKVLIYNTSSLKSGVPSRFSGSGSGTDFTLTISSLQPEDFGTFYCQQSHSTPFTFGPGTKVDIK
On to B1, for which, in assay [1], the binding result is given as “no binding (tested: FOI >=10 = positive)”. Further, in assay [2], the “Human primary T Cell Binding (FOI)” value turned out to be 195 FOI and the “Jurkat Cell Binding (FOI)” value is 181 FOI.

B2: mAb 79 (antibody, V domains shown)
VH: QVQLVQSGAEVKKPGASVKVSCKASGYIVTGYYMHWVRQAPGHGLEWMGWINPNSGGTNFAQNFQGRVTMTRDTSISTFYMDLNRLTSDDTAVYYCARGGAPVSYWFFDLWGRGTLVTVSS
VL: DIQMTQSPSSLSASVGDRVTITCRASQNINSYLNWYHQKPGKAPKVLIYNTSTLKSGVPSRFSGSGSGTYFTLTISSLQPEDFATFYCQQSHSTPFTFGPGTKVDIK
Turning to B2, the binding result in assay [1] is on record as “no binding (tested: FOI >=10 = positive)”. In assay [2], the “Human primary T Cell Binding (FOI)” value is 199 FOI and the “Jurkat Cell Binding (FOI)” value worked out at 171 FOI.

B3: mAb 66 (antibody, V domains shown)
VH: QVQLVQSGAEVKKPGASVKVSCKASGYTVTGYYMHWVRQAPGQGLEWMGWINPNSGGTNFAQNFQGRVTMTRDTSISTFYMDLSRLRSDDTAVYYCARGGAPVSYWFFDLWGRGTLVTVSS
VL: DIQMTQSPSSLSASVGDRVTITCRASQSISRYLNWYQQKPGKAPKVLIYNTSSLKSGVPSRFSGSGSGTDFTLTISSLQPEDFATLYCQQSHSTPFTFGPGTKVDIK
On to B3, for which the binding result in assay [1] is recorded as “no binding (tested: FOI >=10 = positive)”. In addition, in assay [2], the “Human primary T Cell Binding (FOI)” value amounted to 192 FOI and the “Jurkat Cell Binding (FOI)” value stood at 172 FOI.

B4: mAb 99 (antibody, V domains shown)
VH: QGQLVESGGGVVQPGRSLRLSCAASGFTFRGFGMHWVRQAPGKGLEWVAIIYYDGKNKYYADSVKGRFTISRDNSKNTLYLQMNSLRAEDTAVYYCAKGGGYNWFDPWGQGTLVTVSS
VL: DIQMTQSPSSLSASVGDRVTITCRASQSISTYLNWYQQKPGKAPKLLIYSASSLQSGVPSRFSGSGSGTDFTLTISNLQPEDFAIYYCQRSYSPPFTFGPGTKLDIR
B4: the binding result in assay [1] is “no binding (tested: FOI >=10 = positive)”. In addition, in assay [2], the “Human primary T Cell Binding (FOI)” value worked out at 218 FOI and the “Jurkat Cell Binding (FOI)” value worked out at 198 FOI.

B5: mAb 97 (antibody, V domains shown)
VH: QGQLVESGGGVVQPGRSLRLSCAASGFTFRGYGMHWVRQAPGKGLEWVAIIYYDGKNKYYADSVKGRFTISRDNSKNTLYLQMNNLRVEDTAVYYCARGGGYNWFDPWGQGTLVTVSS
VL: DIQMTQSPSSLSASIGDRVTITCRASQSISNYLNWYQQKPGKAPKLLIYSASSLQSGVPSRFSGSGSGTDFTLTISNLQPEDFAIYYCQRSYSPPFTFGPGTKLDIR
As to B5, in assay [1], the binding result is “no binding (tested: FOI >=10 = positive)”. Further, in assay [2], the “Human primary T Cell Binding (FOI)” value came to 211 FOI and the “Jurkat Cell Binding (FOI)” value was found to be 192 FOI.

B6: mAb 93 (antibody, V domains shown)
VH: QVQLVESGGGVVQPGRSLRLSCAASGFTFRGYGMHWVRQAPGKGLEWVAIIYYNGNNKYYADSVKGRFTISRDNSKNTLYLQMNSLRAEDTAVYYCARGGGYNWFDPWGQGTLVTVSS
VL: DIQMTQSPSSLSASVGDRVTITCRASQSISNYLNWYQQEPGKAPKLLIYTASSLQSGVPSRFSGSGSGTAFTLTISSLQPEDFAIYYCQRSSSPPFTFGPGTKLDIK
B6: the binding result in assay [1] is on record as “no binding (tested: FOI >=10 = positive)”. Besides, in assay [2], the “Human primary T Cell Binding (FOI)” value is 198 FOI and the “Jurkat Cell Binding (FOI)” value was determined as 175 FOI.

B7: mAb 100 (antibody, V domains shown)
VH: QVQLVESGGGVVQPGRSLRLSCVASGFTFRGYGMHWVRQAPGKGLEWVAIIYYDGKNKYYADSVKGRFTISRDNSKNTLYLQMNSLRVEDTALYYCARGGGYNWFDPWGQGTLVTVSS
VL: DIQMTQSPSSLSASVGDRVTITCRASQSISTYLNWYQQKPGKAPKLLIYTASSLQSGVPSRFSGSGSGTVFTLTISSLQPEDFAIYYCQRSYSPPFTFGPGTRLDIK
In the case of B7, the binding result in assay [1] is given as “no binding (tested: FOI >=10 = positive)”. In addition, in assay [2], the “Human primary T Cell Binding (FOI)” value is 229 FOI and the “Jurkat Cell Binding (FOI)” value is 241 FOI.

B8: mAb 72 (antibody, V domains shown)
VH: EVQLVDSGGGLVQPGGSLRLSCAASGFTFSSYWMSWVRQAPGKGLEWVANIKQDGSEKYYVDSVKGRFTISRDNVKNSLSLEMNSLRAEDTALYYCARDESSSWYWYFDLWGRGTLVTVSS
VL: DIQMTQSPSTLSASVGDRVTITCRASQSISKWLAWYQQKPGKAPKLLIYKASSLENGVPSRFSGSGSGTEFTLTISSLQPDDFATYYCQQYSSYSRTFGQGTKVEIK
With B8, in assay [1], the binding result is listed as “no binding (tested: FOI >=10 = positive)”. Also, in assay [2], the “Human primary T Cell Binding (FOI)” value worked out at 91.4 FOI and the “Jurkat Cell Binding (FOI)” value is 98.7 FOI.

B9: mAb 67 (antibody, V domains shown)
VH: EVQLVESGGDLVQPGRSLRLSCAASGFTFDDCVIHWVRQAPGKGLEWVSGITWNSGRIGYADSVKGRFTISRDNAKNSLYLQMNSLRVEDTALYYCAKEGNYDFWSTYYRGYFDLWGRGTLVTVSS
VL: DIQMTQSPSSLSASVGDRVTITCRASQGIRNDLGWYQQKPGIAPKRLIYAASSLQGGVPLRFSGSGSGTEFTLTISSLQPEDFATYYCLQHNSYPYTFGQGTKLEIK
In the case of B9, the binding result in assay [1] is “no binding (tested: FOI >=10 = positive)”. Moreover, in assay [2], the “Human primary T Cell Binding (FOI)” value is 72.4 FOI and the “Jurkat Cell Binding (FOI)” value came out at 70.2 FOI.

B10: mAb 73 (antibody, V domains shown)
VH: EVELVESGGGLVQPGRSLRLSCAASGFTFDDKVMHWVRQAPGKGLEWVSCINWNSGHIGYADSVKGRFTISRDNARTSLYLQMNSLRPEDTALYYCVREGNYDFWSGYYRGFFDLWGRGTLVTVSS
VL: DIQMTQSPSSLSASVGDRVTITCRASQGIRNDLGWYQQKPGKAPKRLIYAASSLQGGVPSRFSGSGSGTEFTLTISSLQPEDFATYYCLQHTSYPFTFGQGTKLEIK
In the case of B10, in assay [1], the binding result is listed as “no binding (tested: FOI >=10 = positive)”. In addition, in assay [2], the “Human primary T Cell Binding (FOI)” value stood at 74.5 FOI and the “Jurkat Cell Binding (FOI)” value was 109 FOI.

B11: mAb 74 (antibody, V domains shown)
VH: EVQLVESGGGLVQPGRSLRLSCAASGFTFADYVMHWVRQAPGKGLEWVSGINWNNARIGYVGSVKGRFTISRDNAKNSLYLQMTSLRVEDTALYHCVREGNFDFWSAYYRGFLDLWGRGTLVTVSS
VL: DIQMTQSPSSLSASVGDRVTITCRASQGIRSDLGWYQQKPGKAPKRLIYGASSLQGGVPSRFSGSGSGTEFTLTISSLQPEDFATYYCLQHNSYPYTFGQGTKLEIK
For the molecule B11, the binding result in assay [1] is recorded as “no binding (tested: FOI >=10 = positive)”. Besides, in assay [2], the “Human primary T Cell Binding (FOI)” value turned out to be 146 FOI and the “Jurkat Cell Binding (FOI)” value was determined as 151 FOI.

B12: mAb 71 (antibody, V domains shown)
VH: QVQLVQSGAEVRKPGASVKVSCKASGYTFTKYDVNWVRQAPGQGLEWMGWMNSNNGNIGYAQKFQGRVTMTRKTSISTAYMELSSLRSEDTAVYYCAREGHYDFWRGFYNFDYWGQGTLVTVSS
VL: DIQMTQSPSSLSASVGDRVTITCRASQDIKNDLGWYQQKPGKAPKRLIYAASSLQSGVPSRFSGSGSGTEFTLTISSLQPEDFATYYCLQHNFYPITFGQGTRLEIK
B12: the binding result in assay [1] is on record as “no binding (tested: FOI >=10 = positive)”. In assay [2], the “Human primary T Cell Binding (FOI)” value was 108 FOI and the “Jurkat Cell Binding (FOI)” value was found to be 100 FOI.

The values are drawn from US20230295310A1 (ABCELLERA BIOLOGICS, published 2023).
